Measured values published in patent publication US20160324984A1 (published 2016).

Columns and labels:
Ac-PYY(PEG3-Dig) = molecular target: T1, Ac-PYY(PEG3-Dig) (N-terminal acetyl; Lys 2 side chain carries PEG3-digoxigenin-3-carboxymethyl; Pqa at position 3; N-methyl-Arg at position 14; C-terminal amide); experiment: size exclusion chromatography and SEC-MALLS; binding through digoxigenin
T1 construct: also called DIG-PYY; Digoxigenin-PYY(3-36) conjugate
T1 peptide: IKXRHYLNWVTRQXY

[1] = molecular target: PYY_helicar (helicar motif engineered PYY); experiment: SEC-MALLS
[2] = molecular target: PYY_helicar (helicar motif engineered PYY); experiment: column binding [Kd]; method not stated

Chain of PYY_helicar (helicar motif engineered PYY) (peptide, as listed by the source, change not shown): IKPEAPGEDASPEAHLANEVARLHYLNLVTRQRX

B1: murine anti-digoxigenin antibody (hybridoma-derived) (antibody, mouse IgG1, V domains shown)
VH: EVQLVESGGGLVKPGGSLKLSCAVSGFTFSDYAMSWIRQTPENRLEWVASINIGATYAYYPDSVKGRFTISRDNAKNTLFLQMSSLGSEDTAMYYCARPGSPYEYDKAYYSMAYWGPGTSVTVSS
VL: DVQMTQSTSSLSASLGDRVTISCRASQDIKNYLNWYQQKPGGTVKLLIYYSSTLLSGVPSRFSGRGSGTDFSLTITNLEREDIATYFCQQSITLPPTFGGGTKLEIK
- binding result (Ac-PYY(PEG3-Dig)): binds

B2: anti-helicar motif amino acid sequence antibody (0019) (antibody, V domains shown)
V domain 1: QAVVTQEPSLTVSPGGTVTLTCGSSTGAVTTSNYASWVQQKPGQAFTGLIGGTNNRAPWTPARFSGSLLGGKAALTLSGAQPEDEAEYYCALWYSNHWVFGGGTKLTVL
V domain 2: DAVVTQESALTTSPGETVTLTCRSSTGAVTTSNYASWVQEKPDHLFTGLIGGTNNRAPGVPARFSGSLIGDKAALTITGAQTEDEAIYFCALWYSNHWVFGGGTKLTVL
- stoichiometry of the complex (peptides on one bivalent antibody) (peptides per antibody) [1]: 1.6
- Kd [2]: 12 nM
